The target in the assay is DNA processing protein A (DprA) from Helicobacter pylori strain J99 (Helicobacter pylori strain J99) (UniProt B5ZAA1). Description: SPR; Biacore 3000; DprA immobilised on a CM5 chip (~500 RU), HP0935 passed over at varying concentrations; 50 mM Tris-Cl pH 7.4, 25 °C, 20 μl/min, 300 s dissociation; Langmuir binding fit.

One may read the Kd as the free concentration of one partner at which half of the binding sites on the other are occupied at equilibrium, for simple one-to-one binding. Higher therefore signals weaker binding. On to “HP0935, N-acetyltransferase domain-containing protein (GNAT superfamily protein acetyltransferase) from Helicobacter pylori strain 26695 (from UniProt O25589 2-161) (enzyme)”, for which the Kd stood at 3.28 µM.

(Values after article PMC12273574, “Biochemical and structural characterization of a GNAT superfamily protein acetyltransferase from Helicobacter pylori” (The Journal of Biological Chemistry, 2025).)
